# Patent US20230056404A1 (priority 2019, published 2023)
# Key:
# Sf9 cells = experiment: DRD1-GFP expression, localization and toxicity in Sf9 cells; conditions: Sf9, 72 h
# Method: DRD1-GFP fusions were expressed in Sf9 cells. Sf9 cells were seeded at 0.4×10^6 cells/well in a 6 well plate and incubated for 15 min at RT before transiently transfecting with either EG10 or EG8 using Cellfectin Reagent II (Thermofisher) according to manufactures instruction. DRD1-GFP expression was monitored after 72 h using fluorescence microscopy. Images were taken and analyzed by an Echo Revolve microscopy system.
# HEK293 cells [1] = format: cell-based, human
# DRD1 = molecular target: T1, DRD1 (Homo sapiens, UniProt P21728); experiment: DRD1-Strep functional activity, cAMP-Glo assay; format: cell-based; conditions: HEK293 expressing DRD1-Strep
# T1 construct: expressed in transfected cells; host or cells: HEK293
# Method: In addition to the illustration of a correctly translocated GPCR such as DRD1, activity tests were performed using a DRD1-Strep fusion. The smaller strep-tag ensures that the interaction with the cytosolic located G-protein is intact, and a functional assay can be performed. Upon binding of dopamine, DRD1 releases the heterotrimeric G-protein to its Gα subunit and its Gβγ complex. In the resting state, Ga binds GDP but upon activation exchanges GTP for GDP. The Gα-GTP complex interacts with adenylate cyclase (AC), resulting in activation of AC activity and consequently, increasing cAMP levels. Changes in intracellular cAMP levels can be measured by standard cAMP assays. The academic and industry standard (EG5) was compared to the same target protein in co-expression with the L-protein of ECMV.
# DRD1-Strep fusions were expressed in HEK293 cells. […] Protein was expressed for 48 h and DRD1 activity was analyzed using the cAMP-Glo™ assay (Promega) according to manufacturer's instructions. After 48 h, cells were washed with sterile PBS pH 7.2 and cells were incubated for 2 h with 20 μl of a 1 mM dopamine substrate solution (+dopamine; ON) or PBS pH 7.2 (−dopamine; OFF) at 37° C. […] Luminescence was measured using a plate reader (BioTek Synergy™ LX) and data were analyzed using standard analysis programs.
# CHO-K1 cells = experiment: DRD1-GFP expression and membrane localization in CHO-K1 cells; conditions: CHO-K1, 48 h
# Method: DRD1-GFP fusions proteins were expressed in CHO-K1 cells. CHO-K1 cells were seeded at 0.05×10^6 cells/well in a 24 well plate and incubated at 37° C. and 5% CO2 overnight before transiently transfecting with either EG10 or EG19 using Lipofectamine 3000 (Thermofisher) according to manufactures instructions. DRD1-GFP expression was monitored after 48 h using fluorescence microscopy. Images were taken and analyzed by an Echo Revolve microscopy system.
# HEK293 cells [2] = experiment: C1-Inhibitor secretion and purification, total amount produced; format: cell-based, human; conditions: presence vs absence of the enhancer protein (L protein from EMCV, EG11), HEK293, 72 h
# Method: (§1) C1-Inh-Myc-Flag fusions were expressed in HEK293 cells. HEK293 cells were seeded at 1.75×10^6/ml cells in 100 ml shaking flask and incubated at 37° C., 5% CO2 and 120 rpm overnight before transiently transfecting with a vector encoding C1-Inh (OriGene; CAT #: RC203767) either alone, or in combination with EG11 by transfection of suspension cells using methods known in the art and/or disclosed herein. Supernatant containing the expressed recombinant C1-Inh protein was harvested after 72 h and supernatant was cleared by centrifugation followed by filtration ([…], nitrocellulose). To purify C1-Inh, Anti-Flag resin (ANTI-FLAG M2 Affinity Gel, Millipore Sigma) was equilibrated with 20 mM Tris pH 7.5, 50 mM NaCl prior to adding to the supernatant. Supernatant was incubated with the resin for 2 h at 4° C. with shaking. Resin was settled and washed with 5 CV 20 mM Tris pH 7.5, 50 mM NaCl and protein was eluted with 4 CV 20 mM Tris pH 7.5, 50 mM NaCl, 0.2 mg/ml 3× Flag Peptide. Purification was analyzed by SDS-PAGE (SurePAGE, Bis-Tris, GenScript) and protein containing fractions were pooled. Protein concentration was analyzed by BCA Assay (ThermoFisher) according to manufactures instructions and normalized C1-Inh was tested for activity using Immunoassay (MicroVue C1-Inhibitor Plus EIA, Quidel) following manufactures instructions.
# [3] = Active C1-Inhibitor, MicroVue C1-Inhibitor Plus EIA; format: biochemical; conditions: presence vs absence of the enhancer protein, protein concentration normalized
# Method: as §1
# T1 sequence (P21728 with tags, fused parts or gaps): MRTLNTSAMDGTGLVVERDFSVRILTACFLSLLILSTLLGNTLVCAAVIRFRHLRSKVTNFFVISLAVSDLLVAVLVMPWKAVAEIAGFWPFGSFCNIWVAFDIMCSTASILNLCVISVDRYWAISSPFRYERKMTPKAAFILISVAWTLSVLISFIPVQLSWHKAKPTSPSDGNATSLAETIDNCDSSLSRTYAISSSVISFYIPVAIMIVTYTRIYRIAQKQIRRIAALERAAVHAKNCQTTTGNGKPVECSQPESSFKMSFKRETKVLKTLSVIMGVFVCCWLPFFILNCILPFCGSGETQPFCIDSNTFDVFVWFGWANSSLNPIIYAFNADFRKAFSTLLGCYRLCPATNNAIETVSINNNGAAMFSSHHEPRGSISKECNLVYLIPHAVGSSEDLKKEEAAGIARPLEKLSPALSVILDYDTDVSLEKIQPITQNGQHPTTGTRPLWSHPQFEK
Molecule,DRD1-GFP translocation and localization (Sf9 cells),"DRD1-GFP membrane association, enhancer on a separate vector (HEK293 cells [1])",DRD1-GFP translocation into the outer membrane / inclusion bodies (HEK293 cells [1]),"activating signal, difference between OFF (-dopamine) and ON (+dopamine) luminescence (DRD1; 1 mM dopamine 2 h)","leaky activation, OFF signal compared to non-transfected cells (DRD1; absence of dopamine)",DRD1-GFP translocation and localization (CHO-K1 cells),increase of total amount of produced C1-Inhibitor (HEK293 cells [2]),increase of amount of active C1-Inhibitor [3]
"Leader protein of ECMV: Leader protein of Encephalomyocarditis virus (EMCV), SEQ ID NO: 2, enhancer protein",improved expression and localization of the membrane protein,ensures correct membrane association,sufficient to ensure a correct membrane incorporation of DRD1-GFP,strong activating signal,greatly reduced,–,–,–
"Leader protein of Theiler's virus: Leader protein of Theiler's virus, SEQ ID NO: 1, enhancer protein (protein, Cardiovirus Theiler's-like cardiovirus) MACKHGYPLMCPLCTALDKTSDGLFTLLFDNEWYPTDLLTVDLEDEVFYPDDPHMEWTDLPLIQDIEMEPQ",–,–,sufficient to ensure a correct membrane incorporation of DRD1-GFP,–,–,improved expression and localization of the membrane protein,–,–
"C1-Inhibitor: secreted protease inhibitor of the serpin superfamily, expressed as C1-Inh-myc-flag fusion (protein, UniProt P05155 23-500, looked up, myc-flag tag) Plasma protease C1 inhibitor: NPNATSSSSQDPESLQDRGEGKVATTVISKMLFVEPILEVSSLPTTNSTTNSATKITANTTDEPTTQPTTEPTTQPTIQPTQPTTQLPTDSPTQPTTGSFCPGPVTLCSDLESHSTEAVLGDALVDFSLKLYHAFSAMKKVETNMAFSPFSIASLLTQVLLGAGENTKTNLESILSYPKDFTCVHQALKGFTTKGVTSVSQIFHSPDLAIRDTFVNASRTLYSSSPRVLSNNSDANLELINTWVAKNTNNKISRLLDSLPSDTRLVLLNAIYLSAKWKTTFDPKKTRMEPFHFKNSVIKVPMMNSKKYPVAHFIDQTLKAKVGQLQLSHNLSLVILVPQNLKHRLEDMEQALSPSVFKAIMEKLEMSKFQPTLLTLPRIKVTTSQDMLSIMEKLEFFDFSYDLNLCGLTEDPDLQVSAMQHQTVLELTETGVEAAAASAISVARTLLVFEVQQPFLFVLWDQQHKFPVFMGRVYDPRA",–,–,–,–,–,–,> 30%,> 10%
